# Measurements from the supplement of paper PMC10126150.
# ± gives the standard deviation of the averaged measurements.
# Tested on: ATP
# Assay: switch fluorescence ratio, 500 uM ATP over buffer (Cy3 cluster intensity, sum of 5 cycles each) (fold (ratio)); higher = stronger signal-on switching upon ATP binding; sequences stand for … in TCGTCGGCAGCGTCAGATGTGTATAAGAGACAGTTTTTTTTTTTTTTTTTTTTTTTTT…TC
# Settings: aptamer strand: ATP DNA aptamer (quencher-CACCTGGGGGAGTATTGCGGAGGAAGG + anchor), 100 nM annealed; ATP concentration: 500 uM
# Summary of the method: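 After annealing to 100 nM quencher-labelled ATP aptamer, Cy3-labelled switching-strand clusters on a modified Illumina MiSeq flow-cell were imaged in selection buffer. A second image followed after 15 min with 500 uM ATP at 22 °C, and five such buffer/ATP cycles were done, each separated by NaOH stripping and re-annealing. The fluorescence ratio, averaged per switch-domain sequence, is summed target-cycle over summed buffer-cycle Cy3 intensity per cluster, with clusters outside 100-1000 RFU excluded.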
# 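Also: ATP exposure 15 min at 22 °C before imaging.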
row,Sequence,switch fluorescence ratio
1,TTTAAAAAGG,0.982 ± 0.029
2,GTGGGGTCAA,0.9985 ± 0.0085
3,TAATATGGAG,0.99 ± 0.034
4,GAATGGGTGA,0.983 ± 0.028
5,CTTAACAGCG,1.01 ± 0.02
6,AAGAGGTTGC,0.99 ± 0.044
7,TAAATATGTG,0.986 ± 0.021
8,ACCCGGGGTT,0.994 ± 0.013
9,CAGGATGAAT,0.999 ± 0.033
10,TCATATAATA,1.01 ± 0.018
11,GGTTCCGTGG,0.994 ± 0.023
12,CTCTCAAATG,1.03 ± 0.045
13,TAGTGACTAG,1.05 ± 0.021
14,AAAGTTGCTA,0.985 ± 0.019
15,AGGGGCACAA,1.01 ± 0.024
16,AAAGGCAAAG,0.9971 ± 0.0082
17,GGTGTGATTG,0.977 ± 0.04
18,TTTGTCATTC,1 ± 0.0017
19,CGGTGAAGCC,0.984 ± 0.019
20,GGTTGCTAGG,0.9916 ± 0.0037
21,AACGGTAAAT,1.01 ± 0.085
22,ATGGGAAAAA,1.01 ± 0.014
23,CAGGGGGGGA,1.01 ± 0.044

row,Sequence,switch fluorescence ratio
1,GGGATAGCCG,1 ± 0.059
2,TTGTTGTTTG,1.03 ± 0.025
3,GGTTGGGTCC,0.9701 ± 0.0018
4,CCCAGCTTGT,1.035 ± 0.0031
5,GGTGTATTAG,1 ± 0.029
6,AGTTAGAGTG,0.976 ± 0.016
7,TTGGAGGAGA,1.029 ± 0.005
8,TTTAGGCGTT,1.01 ± 0.057
9,AGGGGAGCGT,1.015 ± 0.0064
10,GTAATTTATG,1.01 ± 0.02
11,AAGGCAAGTC,1.13 ± 0.091
12,ACTCTCGAGG,1.24 ± 0.34
13,GGGGTGTCTT,0.992 ± 0.031
14,TTAAGCCTTT,1.02 ± 0.034
15,CAATGCGGGG,1.01 ± 0.023
16,GATGTTTTGA,1 ± 0.018
17,TCAGATCTGT,1 ± 0.024
18,GGGGCTGGAG,1.03 ± 0.063
19,TTGGTGTTGG,1.01 ± 0.044
20,CGGGGATCCT,1.05 ± 0.032
21,ACTACGTCGG,1.08 ± 0.044
22,CAAAACGGTT,1.02 ± 0.048
23,GTGGTTTGGA,0.989 ± 0.031

row,Sequence,switch fluorescence ratio
1,CTGCTCTGTG,0.968 ± 0.014
2,TTGGGAACAT,1 ± 0.016
3,TCGGTCGGGC,1.01 ± 0.013
4,TAGACCGTTC,1.108 ± 0.0068
5,CTTTGTAGTA,0.977 ± 0.034
6,CCGGGCGATG,1.6 ± 0.1
7,ATTACGGCAC,2.09 ± 0.14
8,TTCGGAGGGT,0.9899 ± 0.0088
9,GGGGAGGAAA,0.999 ± 0.029
10,AGGGGAATTG,0.955 ± 0.021
11,TGGCTTAGGG,0.98975 ± 0.00065
12,TCGGTGAGAG,1.03 ± 0.019
13,CAATGAGCCG,1.02 ± 0.052
14,AGGGGTCTCT,0.985 ± 0.013
15,AGGGGTGTTA,0.991 ± 0.019
16,GAAGTAGGAG,1.01 ± 0.032
17,TTGCAATTTA,1.06 ± 0.033
18,GATAGGATAG,0.991 ± 0.019
19,GTTAGTACTA,1 ± 0.038
20,CGGAGAATGG,1.11 ± 0.13
21,TTTGTTAGGC,0.991 ± 0.029
22,AGAAGCGCGG,0.975 ± 0.044
23,TGCTCATAGC,1.01 ± 0.021

row,Sequence,switch fluorescence ratio
1,ACTCACGGAG,1.16 ± 0.036
2,GGTGGAAGAG,0.982 ± 0.036
3,TACGGGACGC,1.12 ± 0.047
4,TTTAGATTCA,1.001 ± 0.0043
5,TTTGGGTGGA,1.02 ± 0.05
6,TGGTACGGTC,0.927 ± 0.041
7,GGATTCCGGG,0.988 ± 0.027
8,ACAGGGGGCT,1.04 ± 0.051
9,AGTGTGGGGG,1.01 ± 0.029
10,TAGACGTAGG,1.03 ± 0.028
11,ACTCGGAATT,1.12 ± 0.019
12,CCGTTGTGCC,1.022 ± 0.0018
13,TGCTGGAGGA,1.038 ± 0.006
14,GAAGACAGCG,1.07 ± 0.024
15,TGGGAAGGCG,0.983 ± 0.012
16,GGAGGGGAGT,0.999 ± 0.014
17,CGGAACTGAA,1.02 ± 0.072
18,CGGCAGGTTT,0.992 ± 0.016
19,GGGAGGATGC,0.993 ± 0.059
20,GCTTGGATCG,0.993 ± 0.022
21,GGGAGATAGC,1.06 ± 0.015
22,TGGGGCACCG,0.994 ± 0.029
23,GGGCATCGAC,1.05 ± 0.017

row,Sequence,switch fluorescence ratio
1,AAATTAGCGG,0.987 ± 0.032
2,TGCGGCGAGG,1.016 ± 2e-05
3,TATAGGGGTC,0.968 ± 0.014
4,ATATGGCACT,1.008 ± 0.0034
5,TGGGTAGAAC,1.12 ± 0.13
6,CATGCATATT,1.01 ± 0.044
7,GTTTGCGTTG,0.979 ± 0.042
8,ATTGCATGAG,1.004 ± 0.0014
9,TGATACCATG,0.997 ± 0.018
10,CATATCGCCC,1.06 ± 0.039
11,AAGGTCCATG,0.9631 ± 0.0013
12,GGTACTAGGC,1.04 ± 0.08
13,TTATGGGAGT,0.966 ± 0.026
14,TTGCTTTTGG,1.04 ± 0.11
15,TTCGAATTAG,2.28 ± 1.7
16,AAGGCAGGTC,1.02 ± 0.029
17,AAAATGGGGT,1.02 ± 0.052
18,GAGTAGTAGT,0.967 ± 0.026
19,GGTTATCGTA,1.02 ± 0.011
20,AAAGGGACGT,0.991 ± 0.051
21,AATCTCCATT,0.982 ± 0.025
22,TCGGGGAATA,1.02 ± 0.014
23,TTAACTTGTG,0.986 ± 0.031

row,Sequence,switch fluorescence ratio
1,TTCAGGATGG,1.02 ± 0.017
2,CATTATGGGT,0.95 ± 0.013
3,CATTCGCCTC,2.218 ± 0.015
4,CTCCAAAGCG,1.19 ± 0.032
5,TCTCAGTCAC,1.08 ± 0.018
6,CGCAGATTCG,1.01 ± 0.024
7,AAAATATGCC,1.02 ± 0.026
8,TTCGGGCCGG,1.01 ± 0.033
9,CGGGGGTTGC,0.977 ± 0.042
10,TGAAAACACG,1.17 ± 0.22
11,GTTACCCAGT,1.049 ± 0.0098
12,CCGGGGTGTT,1.22 ± 0.3
13,TGAGTACGGG,0.9844 ± 0.0025
14,AAGATTATGG,0.984 ± 0.035
15,GGATTTAAAT,0.976 ± 0.042
16,GGTGGGGGGA,1.01 ± 0.063
17,TTTTCAAGTA,0.9789 ± 0.0094
18,AAAGGGCGGC,0.992 ± 0.018
19,ACTGGTCAGC,1 ± 0.029
20,GCTTTCCGGC,1.02 ± 0.078
21,TGGAAGGGCT,1.052 ± 0.0058
22,ATTTGCGGTT,0.9949 ± 0.0022
23,AGTGCGGGTT,1.02 ± 0.025

row,Sequence,switch fluorescence ratio
1,ATGATATGGG,0.985 ± 0.026
2,CGGGATATGA,1.03 ± 0.028
3,TTGTTTTCCT,1.02 ± 0.011
4,TTTGCGTTCA,1.02 ± 0.078
5,ATGATAGTAA,1.009 ± 0.0027
6,AATCAGGCCT,1.05 ± 0.043
7,ATATATTAAA,0.981 ± 0.03
8,TTTTTGTATT,1.03 ± 0.02
9,CGTGGGGGTG,0.993 ± 0.029
10,AGGTAGGAAG,0.999 ± 0.034
11,TTGGGGGGAG,0.99 ± 0.027
12,AAGGTCGGGA,0.9966 ± 0.0087
13,TATTGGATGC,0.97 ± 0.032
14,CATCAATAAT,1.045 ± 0.0083
15,TGCATACAGT,1.03 ± 0.046
16,TGCTTCATAA,1.01 ± 0.048
17,TATACGTGGC,0.939 ± 0.03
18,TACTGTGTAT,1.01 ± 0.035
19,CCAGACGGGC,1.07 ± 0.059
